Values of other authors in patent US20100233200A1, “VECTOR ENCODING THERAPEUTIC POLYPEPTIDE AND SAFETY ELEMENTS TO CLEAR […]” (priority 2007, published 2010).

System: human tmpk
Settings: relative to wild-type tmpk; cited from earlier work

B1: R200A mutant: modified human tmpk, SEQ ID NOS: 15 and 16 (protein)
chain: MAARRGALIVLEGVDRAGKSTQSRKLVEALCAAGHRAELLRFPERSTEIGKLLSSYLQKKSDVEDHSVHLLFSANRWEQVPLIKEKLSQGVTLVVDRYAFSGVAFTGAKENFSLDWCKQPDVGLPKPDLVLFLQLQLADAAKRGAFGHERYENGAFQERALRCFHQLMKDTTLNWKMVDASKSIEAVHEDIRVLSEDAIATATEKPLGELWK
enzymatic activity (dTMP to dTDP or AZT-MP to AZT-DP): superior enzymatic activity

B2: F105Y mutant: modified human tmpk, SEQ ID NO: 11, SEQ ID NO: 21 (protein, UniProt P23919 2-212, looked up, variant F105Y)
Thymidylate kinase: AARRGALIVLEGVDRAGKSTQSRKLVEALCAAGHRAELLRFPERSTEIGKLLSSYLQKKSDVEDHSVHLLFSANRWEQVPLIKEKLSQGVTLVVDRYAFSGVAYTGAKENFSLDWCKQPDVGLPKPDLVLFLQLQLADAAKRGAFGHERYENGAFQERALRCFHQLMKDTTLNWKMVDASKSIEAVHEDIRVLSEDAIRTATEKPLGELWK
enzymatic activity (dTMP to dTDP or AZT-MP to AZT-DP): superior enzymatic activity
